Laboratory results from the supplement of paper PMC12783771.
± gives the standard deviation of the averaged measurements.

B1: library; numbered along this chain (parent)
chain: MNIQIGELAKRTACPVVTIRFYEQEGLLPPPGRSRGNFRLYGEEHVERLQFIRHCRSLDMPLSDVRTLLSYRKRPDQDCGEVNMLLDEHIRQVESRIGALLELKHHLVELREACSGARPAQSCGILQGLSDCVCDTRGTTAHPSD

How the values were obtained:
[1] = variants of: B1; test: sfGFP reporter fluorescence (15 h) (µM FITC); higher = higher leak; details: library round: Round 0; ligand: none
Summary of the method: (§1)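 Readout was endpoint sfGFP fluorescence, converted to µM FITC through standard curves. Reactions were 1 μL of BL21 Star (DE3) PANOx-SP extract with pPbrR-sfGFP reporter, 30 μg/mL GamS and linear PbrR templates normalized to 5 nM, containing 1 µM lead chloride, 30 µM zinc acetate or no metal. Incubation lasted 15 hr at 30 °C, with up to three biological replicates.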

[2] = variants of: B1; test: sfGFP reporter fluorescence (15 h) (µM FITC); higher = stronger transcriptional activation; details: library round: Round 0
Summary of the method: as §1

Row | Variant | sfGFP reporter fluorescence [1] | sfGFP reporter fluorescence ([2]; ligand: 1 µM Pb) | sfGFP reporter fluorescence ([2]; ligand: 30 µM Zn)
1 | F38A | 0.064 ± 0.0039 | 0.0634 ± 0.0026 | 0.379 ± 0.015
2 | L40A | 0.0608 ± 0.0031 | 0.0658 ± 0.0018 | 0.207 ± 0.0036
3 | S34A | 0.0645 ± 0.001 | 0.0654 ± 0.00078 | 0.328 ± 0.018
4 | Y41C | 0.0618 ± 0.0018 | 0.0592 ± 0.00078 | 0.0654 ± 0.0018
5 | Y41A | 0.0616 ± 0.0042 | 0.0605 | 0.0651 ± 0.0013
6 | Y41G | 0.0563 ± 0.00078 | 0.0564 ± 0.001 | 0.0579 ± 0.0026
7 | Y41K | 0.06047 ± 0.00052 | 0.061 ± 0.0029 | 0.0621 ± 0.0018
8 | Y41F | 0.0572 ± 0.0031 | 0.1001 ± 0.00052 | 1.19 ± 0.041
9 | Y41E | 0.0607 ± 0.00078 | 0.0625 ± 0.00078 | 0.0619 ± 0.0015
10 | Y41H | 0.0599 ± 0.0029 | 0.0618 ± 0.0023 | 0.0678 ± 0.0026
11 | Y41I | 0.0575 ± 0.0015 | 0.0572 ± 0.0021 | 0.0623 ± 0.0031
12 | Y41D | 0.0601 ± 0.001 | 0.0607 ± 0.00078 | 0.0621 ± 0.0023
13 | P31A | 0.05736 ± 0.00026 | 0.0607 ± 0.0044 | 0.485 ± 0.04
14 | Q24A | 0.0559 ± 0.0029 | 0.05827 ± 0.00052 | 0.534 ± 0.052
15 | G36V | 0.06011 ± 0.00052 | 0.0711 ± 0.00052 | 0.322 ± 0.011
16 | G36H | 0.0627 ± 0.0015 | 0.0793 ± 0.0018 | 0.772 ± 0.059
17 | G36P | 0.05937 ± 0.00052 | 0.0583 ± 0.001 | 0.0627 ± 0.0036
18 | G36I | 0.05589 ± 0.00026 | 0.0579 ± 0.0015 | 0.117 ± 0.0044
19 | G36L | 0.0588 ± 0.00078 | 0.0621 ± 0.00078 | 0.114 ± 0.011
20 | G36E | 0.05992 ± 0.00026 | 0.0618 ± 0.0018 | 0.115 ± 0.0098
21 | G36R | 0.0597 ± 0.0015 | 0.0656 ± 0.0026 | 0.247 ± 0.0088
22 | G36W | 0.0579 ± 0.0057 | 0.0601 ± 0.0062 | 0.104 ± 0.0042

Row | Variant | sfGFP reporter fluorescence [1] | sfGFP reporter fluorescence ([2]; ligand: 1 µM Pb) | sfGFP reporter fluorescence ([2]; ligand: 30 µM Zn)
23 | G36M | 0.0612 | 0.0667 ± 0.0031 | 0.236 ± 0.028
24 | G36D | 0.0616 | 0.0623 ± 0.0021 | 0.0695 ± 0.0018
25 | G36C | 0.0618 ± 0.0018 | 0.0865 ± 0.0015 | 0.8609 ± 0.0015
26 | G36Y | 0.0605 ± 0.0026 | 0.0691 ± 0.0023 | 0.275 ± 0.031
27 | G36K | 0.06304 ± 0.00052 | 0.09218 ± 0.00026 | 1.18 ± 0.099
28 | G36F | 0.0594 ± 0.001 | 0.0638 ± 0.0015 | 0.145 ± 0.0029
29 | G36Q | 0.0592 ± 0.0029 | 0.0676 ± 0.0023 | 0.3562 ± 0.0026
30 | G36T | 0.06469 ± 0.00026 | 0.08943 ± 0.00052 | 0.866 ± 0.074
31 | G36N | 0.064 ± 0.0018 | 0.09 ± 0.006 | 1.41 ± 0.29
32 | G36A | 0.0665 ± 0.00078 | 0.108 ± 0.0067 | 1.91 ± 0.2
33 | G36S | 0.0706 ± 0.00078 | 0.119 ± 0.021 | 2.69 ± 0.06
34 | L28P | 0.06102 ± 0.00026 | 0.06047 ± 0.00052 | 0.0619 ± 0.001
35 | L28E | 0.06304 ± 0.00052 | 0.0649 ± 0.0015 | 0.0656
36 | L28A | 0.06322 ± 0.00026 | 0.0603 ± 0.00078 | 0.0695 ± 0.0013
37 | L28H | 0.06249 ± 0.00026 | 0.0625 ± 0.0013 | 0.0563 ± 0.0034
38 | L28T | 0.0647 ± 0.0013 | 0.0691 ± 0.0013 | 0.166 ± 0.031
39 | L28K | 0.06304 ± 0.00052 | 0.0625 ± 0.0018 | 0.05809 ± 0.00026
40 | L28N | 0.06285 ± 0.00026 | 0.0592 ± 0.00078 | 0.0605 ± 0.0026
41 | L28F | 0.0603 ± 0.00078 | 0.0784 ± 0.0015 | 0.599 ± 0.018
42 | L28C | 0.06304 ± 0.00052 | 0.06487 ± 0.00052 | 0.14 ± 0.0052
43 | L28S | 0.0627 ± 0.0015 | 0.0632 ± 0.0023 | 0.0715
44 | L28I | 0.0588 ± 0.00078 | 0.0841 ± 0.0013 | 0.908 ± 0.066

Row | Variant | sfGFP reporter fluorescence [1] | sfGFP reporter fluorescence ([2]; ligand: 1 µM Pb) | sfGFP reporter fluorescence ([2]; ligand: 30 µM Zn)
45 | L28R | 0.0629 ± 0.0013 | 0.063 ± 0.0026 | 0.0588 ± 0.0029
46 | L28W | 0.061 ± 0.0018 | 0.0821 ± 0.001 | 0.878 ± 0.019
47 | L28V | 0.06175 ± 0.00026 | 0.0819 ± 0.0013 | 0.5124 ± 0.0026
48 | L28Q | 0.0638 | 0.0619 ± 0.001 | 0.05901 ± 0.00052
49 | L28Y | 0.0621 ± 0.00078 | 0.0627 ± 0.0015 | 0.12 ± 0.0052
50 | L28M | 0.0616 | 0.077 ± 0.0015 | 0.618 ± 0.023
51 | L28D | 0.06194 ± 0.00052 | 0.0632 ± 0.00078 | 0.06359 ± 0.00026
52 | L28G | 0.05882 ± 0.00026 | 0.0581 ± 0.00078 | 0.059 ± 0.001
53 | R20Y | 0.06249 ± 0.00026 | 0.06377 ± 0.00052 | 0.124 ± 0.0018
54 | R20W | 0.0625 ± 0.0018 | 0.06157 ± 0.00052 | 0.063 ± 0.0015
55 | R20V | 0.0623 ± 0.00052 | 0.0618 ± 0.0023 | 0.0627 ± 0.0026
56 | R20T | 0.0625 ± 0.0018 | 0.0612 ± 0.0021 | 0.06102 ± 0.00026
57 | Y22T | 0.05937 ± 0.00052 | 0.06084 ± 0.00052 | 0.06121 ± 0.00052
58 | Y22E | 0.06157 ± 0.00052 | 0.0621 ± 0.0013 | 0.06011 ± 0.00052
59 | Y22P | 0.0618 ± 0.0018 | 0.06066 ± 0.00026 | 0.0621 ± 0.0023
60 | Y22R | 0.0678 ± 0.00052 | 0.06579 ± 0.00026 | 0.0689 ± 0.0031
61 | Y22F | 0.0629 ± 0.0029 | 0.0662 ± 0.00078 | 0.173 ± 0.0039
62 | Y22A | 0.06029 ± 0.00026 | 0.0557 ± 0.0021 | 0.0634 ± 0.001
63 | Y22W | 0.0658 ± 0.0029 | 0.142 ± 0.00026 | 2.1 ± 0.13
64 | Y22V | 0.06359 ± 0.00026 | 0.0614 ± 0.00078 | 0.0641 ± 0.0021
65 | Y22D | 0.06066 ± 0.00026 | 0.0618 ± 0.0018 | 0.06011 ± 0.00052
66 | Y22K | 0.0625 ± 0.0018 | 0.0627 ± 0.001 | 0.0614 ± 0.0029

Row | Variant | sfGFP reporter fluorescence [1] | sfGFP reporter fluorescence ([2]; ligand: 1 µM Pb) | sfGFP reporter fluorescence ([2]; ligand: 30 µM Zn)
67 | Y22L | 0.0614 ± 0.00078 | 0.0597 ± 0.0015 | 0.07183 ± 0.00052
68 | Y22C | 0.0614 ± 0.0044 | 0.0623 ± 0.00052 | 0.05919 ± 0.00026
69 | Y22S | 0.0636 ± 0.0013 | 0.06084 ± 0.00052 | 0.0619 ± 0.001
70 | Y22N | 0.0619 ± 0.0031 | 0.0607 ± 0.0029 | 0.0614 ± 0.0023
71 | Y22M | 0.0638 ± 0.001 | 0.0612 ± 0.0031 | 0.064 ± 0.0013
72 | Y22Q | 0.0627 ± 0.001 | 0.0612 | 0.0607 ± 0.0023
73 | Y22H | 0.063 ± 0.0015 | 0.06249 ± 0.00026 | 0.0651 ± 0.0018
74 | Y22G | 0.0594 ± 0.0031 | 0.05846 ± 0.00026 | 0.0605 ± 0.0015
75 | Y22I | 0.0605 ± 0.0015 | 0.0583 ± 0.0015 | 0.0564 ± 0.0036
76 | P29A | 0.0607 ± 0.0044 | 0.0704 ± 0.0031 | 0.455 ± 0.039
77 | R33P | 0.0607 ± 0.0013 | 0.05956 ± 0.00026 | 0.064 ± 0.00078
78 | R33N | 0.0632 ± 0.00078 | 0.0817 ± 0.028 | 0.06084 ± 0.00052
79 | R33Q | 0.0623 ± 0.001 | 0.0612 ± 0.001 | 0.0711 ± 0.0026
80 | R33F | 0.0599 ± 0.0018 | 0.061 ± 0.0029 | 0.0665 ± 0.0044
81 | R33W | 0.0636 ± 0.00078 | 0.0629 ± 0.0039 | 0.0718 ± 0.0021
82 | R33E | 0.06157 ± 0.00052 | 0.06304 ± 0.00052 | 0.0715 ± 0.0031
83 | R33M | 0.0629 ± 0.0013 | 0.0625 ± 0.0013 | 0.0619 ± 0.0015
84 | R33C | 0.0592 ± 0.00078 | 0.0607 ± 0.0023 | 0.0612 ± 0.0021
85 | R33H | 0.0623 ± 0.00052 | 0.0607 ± 0.0029 | 0.0707
86 | R33G | 0.0577 ± 0.00078 | 0.0575 ± 0.0015 | 0.0599 ± 0.0018
87 | R33Y | 0.0647 ± 0.0013 | 0.0618 ± 0.0013 | 0.0702 ± 0.0029
88 | R33K | 0.064 ± 0.0013 | 0.0634 ± 0.0042 | 0.112 ± 0.0065
